The text below walks through data of article PMC6019700 (Cell Reports, 2018).

In test [1] the target is PC64M4C054 full-length Env (early FL) (HIV-1 clade A, donor PC64, clone …, strain, N-linked glycans | N-linked glycans). The experiment in a line: cell-based or functional assay.
The target in test [2] is PC64M18C043 full-length Env (late FL), clade A HIV-1 Env clone no. 43 from the 18 months post-infection … (HIV-1 clade A, donor PC64, clone …, strain, N-linked glycans (N130, N156, N160 and others) | N-linked glycans (N611, N616, N637 and others)). Put plainly: cell-based or functional assay.

B1: PCT64-13C Fab (early Fab), PCT64 lineage antibody isolated from month 13 (Fab, V domains shown)
VH: EVQLVESGGGLVKPGGSLRLSCAASGFTFTNAWLDWVRQAPGKGLEWVGRIKSKTDGGTTDHAAPVKGRFTISRDDSKNTVYLQMNSLKIEDTAVYYCTTGVETYDFWSGYDDHYYDYYFKDVWGKGTTVTVSS
VL: EIVLTQSPGTLSLSPGERATLSCRASQSVSNNYLAWYQQKPGQAPRLLIYGASSRATGIPDRFSGSGSGTDFTLTISRLEPEDFAVYYCQQSARSFTFGPGTKVDIK
With B1, the “neutralisation of early M4 virus by the antibody PCT64-13C, IC50” value in test [1] was 0.0229 µg/mL.

B2: PGT151 Fab (Fab, V domains shown)
VH: RVQLVESGGGVVQPGKSVRLSCVVSDFPFSKYPMYWVRQAPGKGLEWVAAISGDAWHVVYSNSVQGRFLVSRDNVKNTLYLEMNSLKIEDTAVYRCARMFQESGPPRLDRWSGRNYYYYSGMDVWGQGTTVTVSS
VL: DIVMTQTPLSLSVTPGQPASISCKSSESLRQSNGKTSLYWYRQKPGQSPQLLVFEVSNRFSGVSDRFVGSGSGTDFTLRISRVEAEDVGFYYCMQSKDFPLTFGGGTKVDLK
Regarding B2, in test [2], the “neutralisation of late Env pseudovirus, IC50” value amounted to 0.0013 µg/mL.

B3: PCT64-35S Fab (late Fab), PCT64 lineage antibody isolated from the month 35 sample (Fab, V domains shown)
VH: EVQLVESGGGLVKPGGSLRLACVGSEFTFSEAWMTWVRQAPGKGLEWVGHMRPTTEGGAKDYAAAVRGRFTIARDDSKSTLYLQMNSLKIEDTGVYYCMTGVERGDFWSDDYSQHYNTYLIDVWGKGTTVTVSS
VL: EIVLTQSPGTLSLSPGDRATLSCRATQSVGGDYFAWYQQRPGQSPRLLIYGTSRRAAGIPDRFSGSGSGTDFTLTIDRLEPEDFAVYYCRQYETSFTFGPGTKVDIK
B3: the “neutralisation of late M18 virus by the antibody PCT64-35S, IC50” value in test [2] was found to be 9 µg/mL.
